Laboratory results as given in the supplement of paper PMC9112550, “Optimization of the antimicrobial peptide Bac7 by deep mutational scanning” (BMC Biology, 2022).

Each sequence was assayed on Escherichia coli TOP10 (assay: shrunken log2 fold change of peptide-encoding DNA abundance (4.5 h post-induction vs induction); higher = less antimicrobial activity (less host growth inhibition)). Conditions: time post-induction: 4.5 h; library: site-saturation at positions 5, 18, 19, 20.
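Further: peptides expressed intracellularly from a pBAD plasmid library in pooled LB shake-flask culture, induced with 0.3% L-arabinose, DNA abundance read by NGS, three biological replicates, DESeq2 with apeglm shrinkage.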

Sequence	shrunken log2 fold change
RRIRPRPPRLPRPRPRPQFMPRP	-0.259
RRIRGRPPRLPRPRPRPVKMPRP	0.127
RRIRMRPPRLPRPRPRPMEHPRP	0.0124
RRIRNRPPRLPRPRPRPRAKPRP	0.0711
RRIRYRPPRLPRPRPRPTCQPRP	-0.0443
RRIRFRPPRLPRPRPRPLWCPRP	-0.0894
RRIRMRPPRLPRPRPRPPQAPRP	1.06
RRIRDRPPRLPRPRPRPNFWPRP	0.375
RRIRPRPPRLPRPRPRPWQKPRP	-0.179
RRIRIRPPRLPRPRPRPYSFPRP	-0.307
RRIRMRPPRLPRPRPRPCQNPRP	0.0761
RRIRDRPPRLPRPRPRPAHAPRP	0.0741
RRIRTRPPRLPRPRPRPCIAPRP	-0.226
RRIRMRPPRLPRPRPRPFSCPRP	-0.115
RRIRHRPPRLPRPRPRPAICPRP	-0.218
RRIRRRPPRLPRPRPRPQFPPRP	0.133
RRIRERPPRLPRPRPRPELYPRP	-0.0287
RRIRSRPPRLPRPRPRPHQGPRP	0.0275
RRIRYRPPRLPRPRPRPPFSPRP	-0.285
RRIRGRPPRLPRPRPRPNGDPRP	0.115
RRIRRRPPRLPRPRPRPQATPRP	0.233
RRIRTRPPRLPRPRPRPSYEPRP	-0.352

Sequence	shrunken log2 fold change
RRIRERPPRLPRPRPRPCLVPRP	0.0202
RRIRERPPRLPRPRPRPHAYPRP	-0.352
RRIRWRPPRLPRPRPRPREYPRP	0.0698
RRIRMRPPRLPRPRPRPMLCPRP	0.049
RRIRCRPPRLPRPRPRPTRDPRP	0.104
RRIRFRPPRLPRPRPRPYQSPRP	-0.00405
RRIRCRPPRLPRPRPRPSAPPRP	0.0889
RRIRTRPPRLPRPRPRPYLWPRP	-0.284
RRIRLRPPRLPRPRPRPKSIPRP	-0.189
RRIRVRPPRLPRPRPRPPMDPRP	-0.291
RRIRVRPPRLPRPRPRPVEHPRP	0.00181
RRIRIRPPRLPRPRPRPADNPRP	0.00497
RRIRARPPRLPRPRPRPLEIPRP	0.0728
RRIRQRPPRLPRPRPRPCWKPRP	0.111
RRIRIRPPRLPRPRPRPLGLPRP	-0.177
RRIRRRPPRLPRPRPRPSHNPRP	-0.379
RRIRKRPPRLPRPRPRPEHRPRP	-0.0428
RRIRDRPPRLPRPRPRPEDMPRP	1.81
RRIRMRPPRLPRPRPRPKDNPRP	1.43
RRIRNRPPRLPRPRPRPGYAPRP	-0.0974
RRIRGRPPRLPRPRPRPTFDPRP	0.548
RRIRLRPPRLPRPRPRPSHPPRP	-0.516

Sequence	shrunken log2 fold change
RRIRQRPPRLPRPRPRPKYIPRP	-1.11
RRIRGRPPRLPRPRPRPMAPPRP	1.2
RRIRNRPPRLPRPRPRPEYCPRP	0.00705
RRIRCRPPRLPRPRPRPYLKPRP	-1.1
RRIRARPPRLPRPRPRPTYKPRP	-0.23
RRIRHRPPRLPRPRPRPVQRPRP	-0.0182
RRIRRRPPRLPRPRPRPVEWPRP	-0.182
RRIRFRPPRLPRPRPRPSFDPRP	-0.62
RRIRLRPPRLPRPRPRPISWPRP	0.0554
RRIRWRPPRLPRPRPRPTPVPRP	0.49
RRIRPRPPRLPRPRPRPFETPRP	-0.117
RRIRTRPPRLPRPRPRPYACPRP	-0.216
RRIRIRPPRLPRPRPRPYVAPRP	-0.674
RRIRNRPPRLPRPRPRPGNEPRP	-0.223
RRIRDRPPRLPRPRPRPFRAPRP	-0.0871
RRIRARPPRLPRPRPRPSALPRP	0.591
RRIRKRPPRLPRPRPRPRLQPRP	0.475
RRIRDRPPRLPRPRPRPEARPRP	1.96
RRIRPRPPRLPRPRPRPCQCPRP	-0.0627
RRIRPRPPRLPRPRPRPWVAPRP	0.014
RRIRARPPRLPRPRPRPPKFPRP	0.121
RRIRWRPPRLPRPRPRPYVFPRP	-0.142

Sequence	shrunken log2 fold change
RRIRSRPPRLPRPRPRPSGNPRP	-0.571
RRIRMRPPRLPRPRPRPCLFPRP	-0.155
RRIRLRPPRLPRPRPRPQVDPRP	-0.136
RRIRARPPRLPRPRPRPAMVPRP	0.109
RRIRNRPPRLPRPRPRPFNEPRP	-0.198
RRIRQRPPRLPRPRPRPLHAPRP	0.164
RRIRERPPRLPRPRPRPNDEPRP	-0.0119
RRIRARPPRLPRPRPRPHEAPRP	-0.0395
RRIRDRPPRLPRPRPRPPQRPRP	0.719
RRIRHRPPRLPRPRPRPDWGPRP	0.0592
RRIRARPPRLPRPRPRPQKPPRP	0.117
RRIRYRPPRLPRPRPRPQLQPRP	-0.137
RRIRWRPPRLPRPRPRPWVFPRP	0.262
RRIRQRPPRLPRPRPRPQENPRP	-0.0517
RRIRCRPPRLPRPRPRPEKFPRP	0.0607
RRIRERPPRLPRPRPRPMCWPRP	0.451
RRIRIRPPRLPRPRPRPMIFPRP	-0.266
RRIRLRPPRLPRPRPRPVTQPRP	-0.323
RRIRWRPPRLPRPRPRPARDPRP	0.377
RRIRCRPPRLPRPRPRPGEIPRP	0.183
RRIRVRPPRLPRPRPRPRTKPRP	0.0796
RRIRYRPPRLPRPRPRPGTYPRP	-0.0385

Sequence	shrunken log2 fold change
RRIRLRPPRLPRPRPRPPTSPRP	0.493
RRIRGRPPRLPRPRPRPHSSPRP	-0.144
RRIRWRPPRLPRPRPRPIDWPRP	0.45
RRIRIRPPRLPRPRPRPGLPPRP	0.209
RRIRQRPPRLPRPRPRPQLTPRP	-0.405
RRIRIRPPRLPRPRPRPMHVPRP	-0.00468
RRIRARPPRLPRPRPRPDRAPRP	0.642
RRIRYRPPRLPRPRPRPLDFPRP	-0.269
RRIRMRPPRLPRPRPRPHWDPRP	-0.145
RRIRERPPRLPRPRPRPFNGPRP	-0.145
RRIRKRPPRLPRPRPRPGYWPRP	-0.00764
RRIRSRPPRLPRPRPRPQFQPRP	-0.124
RRIRQRPPRLPRPRPRPMRMPRP	0.0593
RRIRYRPPRLPRPRPRPWTSPRP	-0.039
RRIRTRPPRLPRPRPRPVKHPRP	-0.411
RRIRYRPPRLPRPRPRPWGKPRP	-0.461
RRIRCRPPRLPRPRPRPYMYPRP	-0.912
RRIRPRPPRLPRPRPRPVANPRP	0.495
RRIRFRPPRLPRPRPRPNPLPRP	0.0861
RRIRMRPPRLPRPRPRPWEPPRP	0.127
RRIRIRPPRLPRPRPRPPNMPRP	-0.422
